In patent US20250296971A1, “GASTRIC INHIBITORY PEPTIDE RECEPTOR LIGANDS” (priority 2021, published 2025):
*1 amine or outer side, *2 acyl side, *3 side chain or, on linkers, in order; H or OH if unused. Bridges are numbered along the chain shown (N, C = ends). Primed or numbered codes have the meaning given here. [ ]: non-standard residue; d: D form. The star is where a group is joined. Ttds = 1,13-diamino-4,7,10-trioxatridecan-succinamic acid, NCCCOCCOCCOCCCNC(=O)CCC(=O)*; Ttds(4) = 1,13-diamino-4,7,10-trioxatridecan-succinamic acid; DOTA = O=C(O)CN1CCN(CC(=O)O)CCN(CC(=O)*)CCN(CC(=O)O)CC1; Trp(5-Cl) = N[C@@H](Cc1c[nH]c2ccc(Cl)cc12)C(=O)O; Pyridine(2,6-diCH2) = c1cc(C[*:1])nc(C[*:2])c1; Phe(2,4-Cl2) = N[C@@H](Cc1ccc(Cl)cc1Cl)C(=O)O; Trp(7-aza) = N[C@@H](Cc1c[nH]c2ncccc12)C(=O)O; 2Lut″ = 2,6-lutidylidene linking two thiols; Phe(4-Cl) = N[C@@H](Cc1ccc(Cl)cc1)C(=O)O; Phe(2-Cl) = N[C@@H](Cc1ccccc1Cl)C(=O)O; 1Nal = N[C@@H](Cc1cccc2ccccc12)C(=O)O; mXylylene = c1cc(C[*:1])cc(C[*:2])c1; Hyp = O=C(O)[C@@H]1C[C@@H](O)CN1; Cysteamide = C(CS[*:3])N[*:1]; Thp = NC1(C(=O)O)CCOCC1; Aib = CC(C)(N)C(=O)O

Molecular target: human Gastric Inhibitory Peptide Receptor (GIPR) (human) (UniProt P48546)
Assay: FACS competition vs biotinylated GIP-057 on CHO-K1-hGIPR cells; category D: pIC50 <=6.0

{DOTA-Ttds}-WDP[Trp(5-Cl)][dL]ECLI[Aib][Cysteamide] (linker 7-11 via mXylylene) [DOTA-Ttds-Trp-Asp-Pro-5Clw-leu-Glu-[Cys(3MeBn)-Leu-Ile-Aib-AET]] was tested, and the pIC50 was under 6 pic50.

In the case of {DOTA-Ttds}-[dL]DP[Trp(5-Cl)]WLCE[Aib]I[Cysteamide] (linker 7-11 via mXylylene) [DOTA-Ttds-leu-Asp-Pro-5Clw-Trp-Leu-[Cys(3MeBn)-Glu-Aib-Ile-AET]], the pIC50 is reported as under 6 pic50.

Ac-D[Trp(7-aza)][1Nal]PE[dL]C[Aib]LIC-{Ttds(4)-K(DOTA)-NH2} (linker 7-11 via mXylylene) [Ac-Asp-7Nw-1Ni-Pro-Glu-leu-[Cys(3MeBn)-Aib-Leu-Ile-Cys]-Ttds-Lys(DOTA)-NH2] showed a pIC50 of under 6 pic50.

Ac-DW[Phe(2-Cl)][Hyp]E[dL]C[Thp]LIC-NH2 (linker 7-11 via 2Lut″) [Ac-Asp-Trp-Ocf-Hyp-Glu-leu-[Cys(2Lut)-Thp-Leu-Ile-Cys]-NH2] gave a pIC50 of under 6 pic50.

B1: Ac-Asp-Trp-5Clw-Hyp-Glu-leu-[Cys(2Lut)-Thp-Leu-Arg-Cys]-NH2 (peptide)
peptide: Ac-DW[Trp(5-Cl)][Hyp]E[dL]C[Thp]LRC-NH2
modifications: linker 7-11 via Pyridine(2,6-diCH2)
SMILES: CC(=O)N[C@@H](CC(=O)O)C(=O)N[C@@H](Cc1c[nH]c2ccccc12)C(=O)N[C@@H](Cc1c[nH]c2ccc(Cl)cc12)C(=O)N1C[C@H](O)C[C@H]1C(=O)N[C@@H](CCC(=O)O)C(=O)N[C@H](CC(C)C)C(=O)N[C@H]1CSCc2cccc(n2)CSC[C@@H](C(N)=O)NC(=O)[C@H](CCCNC(=N)N)NC(=O)[C@H](CC(C)C)NC(=O)C2(CCOCC2)NC1=O
In the case of B1, the pIC50 is reported as under 6 pic50.

With {DOTA-Ttds}-[Trp(5-Cl)]PE[dL]DWCIL[Aib][Cysteamide] (linker 7-11 via mXylylene) [DOTA-Ttds-5Clw-Pro-Glu-leu-Asp-Trp-[Cys(3MeBn)-Ile-Leu-Aib-AET]] the pIC50 was under 6 pic50.

Ac-DW[Phe(2,4-Cl2)][Hyp]E[dL]C[Thp]LIC-NH2 (linker 7-11 via Pyridine(2,6-diCH2)) [Ac-Asp-Trp-Egm-Hyp-Glu-leu-[Cys(2Lut)-Thp-Leu-Ile-Cys]-NH2] showed a pIC50 of under 6 pic50.

In the case of Ac-DW[Phe(4-Cl)][Hyp]E[dL]C[Thp]LIC-NH2 (linker 7-11 via 2Lut″) [Ac-Asp-Trp-Pcf-Hyp-Glu-leu-[Cys(2Lut)-Thp-Leu-Ile-Cys]-NH2], the pIC50 is reported as under 6 pic50.
